Data on 7 molecules can be found in patent publication US20110166062A1 (INDIANA UNIVERSITY RESEARCH AND TECHNOLOGY, published 2011).

First the molecules themselves.
T1: GIP receptor (UniProt P48546 22-466)
T1 sequence (looked up): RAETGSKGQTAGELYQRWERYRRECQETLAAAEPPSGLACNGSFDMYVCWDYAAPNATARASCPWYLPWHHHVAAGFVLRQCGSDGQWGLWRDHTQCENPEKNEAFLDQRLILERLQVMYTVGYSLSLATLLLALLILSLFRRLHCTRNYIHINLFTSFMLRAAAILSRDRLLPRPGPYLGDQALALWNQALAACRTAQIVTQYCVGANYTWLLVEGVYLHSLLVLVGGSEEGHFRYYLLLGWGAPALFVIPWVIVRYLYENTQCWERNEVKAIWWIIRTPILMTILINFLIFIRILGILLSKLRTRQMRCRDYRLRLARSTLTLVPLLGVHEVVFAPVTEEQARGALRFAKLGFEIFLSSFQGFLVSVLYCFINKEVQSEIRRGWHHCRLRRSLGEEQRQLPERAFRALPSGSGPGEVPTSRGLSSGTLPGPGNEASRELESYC

T2: GIP receptor (UniProt P48546 22-466)
T2 sequence (looked up): T1 sequence (looked up)

B1: mt-169 (peptide)
peptide: Y[Aib]QGTFTSDYSIYLDEQAAKEFVCWLLAG-NH2
modifications: lactam 16-20; N-terminus assumed
SMILES: CC[C@H](C)[C@H](NC(=O)[C@H](CO)NC(=O)[C@H](Cc1ccc(O)cc1)NC(=O)[C@H](CC(=O)O)NC(=O)[C@H](CO)NC(=O)[C@@H](NC(=O)[C@H](Cc1ccccc1)NC(=O)[C@@H](NC(=O)CNC(=O)[C@H](CCC(N)=O)NC(=O)C(C)(C)NC(=O)[C@@H](N)Cc1ccc(O)cc1)[C@@H](C)O)[C@@H](C)O)C(=O)N[C@@H](Cc1ccc(O)cc1)C(=O)N[C@@H](CC(C)C)C(=O)N[C@@H](CC(=O)O)C(=O)N[C@H]1CCC(=O)NCCCC[C@@H](C(=O)N[C@@H](CCC(=O)O)C(=O)N[C@@H](Cc2ccccc2)C(=O)N[C@H](C(=O)N[C@@H](CS)C(=O)N[C@@H](Cc2c[nH]c3ccccc23)C(=O)N[C@@H](CC(C)C)C(=O)N[C@@H](CC(C)C)C(=O)N[C@@H](C)C(=O)NCC(N)=O)C(C)C)NC(=O)[C@H](C)NC(=O)[C@H](C)NC(=O)[C@H](CCC(N)=O)NC1=O
B2: mt-167 (peptide)
peptide: YSQGTFTSDYSIYLDEEAAKEFVNWLLAGGPSSGAPPPS-NH2
modifications: lactam 17-20; N-terminus assumed
SMILES: CC[C@H](C)[C@H](NC(=O)[C@H](CO)NC(=O)[C@H](Cc1ccc(O)cc1)NC(=O)[C@H](CC(=O)O)NC(=O)[C@H](CO)NC(=O)[C@@H](NC(=O)[C@H](Cc1ccccc1)NC(=O)[C@@H](NC(=O)CNC(=O)[C@H](CCC(N)=O)NC(=O)[C@H](CO)NC(=O)[C@@H](N)Cc1ccc(O)cc1)[C@@H](C)O)[C@@H](C)O)C(=O)N[C@@H](Cc1ccc(O)cc1)C(=O)N[C@@H](CC(C)C)C(=O)N[C@@H](CC(=O)O)C(=O)N[C@@H](CCC(=O)O)C(=O)N[C@H]1CCC(=O)NCCCC[C@@H](C(=O)N[C@@H](CCC(=O)O)C(=O)N[C@@H](Cc2ccccc2)C(=O)N[C@H](C(=O)N[C@@H](CC(N)=O)C(=O)N[C@@H](Cc2c[nH]c3ccccc23)C(=O)N[C@@H](CC(C)C)C(=O)N[C@@H](CC(C)C)C(=O)N[C@@H](C)C(=O)NCC(=O)NCC(=O)N2CCC[C@H]2C(=O)N[C@@H](CO)C(=O)N[C@@H](CO)C(=O)NCC(=O)N[C@@H](C)C(=O)N2CCC[C@H]2C(=O)N2CCC[C@H]2C(=O)N2CCC[C@H]2C(=O)N[C@@H](CO)C(N)=O)C(C)C)NC(=O)[C@H](C)NC(=O)[C@H](C)NC1=O
B3: mt-168 (peptide)
peptide: YSQGTFTSDYSIYLDEQKAKEFVNWLLAGGPSSGAPPPS-NH2
modifications: lactam 18-21; N-terminus assumed
SMILES: CC[C@H](C)[C@H](NC(=O)[C@H](CO)NC(=O)[C@H](Cc1ccc(O)cc1)NC(=O)[C@H](CC(=O)O)NC(=O)[C@H](CO)NC(=O)[C@@H](NC(=O)[C@H](Cc1ccccc1)NC(=O)[C@@H](NC(=O)CNC(=O)[C@H](CCC(N)=O)NC(=O)[C@H](CO)NC(=O)[C@@H](N)Cc1ccc(O)cc1)[C@@H](C)O)[C@@H](C)O)C(=O)N[C@@H](Cc1ccc(O)cc1)C(=O)N[C@@H](CC(C)C)C(=O)N[C@@H](CC(=O)O)C(=O)N[C@@H](CCC(=O)O)C(=O)N[C@@H](CCC(N)=O)C(=O)N[C@H]1CCCCNC(=O)CC[C@@H](C(=O)N[C@@H](Cc2ccccc2)C(=O)N[C@H](C(=O)N[C@@H](CC(N)=O)C(=O)N[C@@H](Cc2c[nH]c3ccccc23)C(=O)N[C@@H](CC(C)C)C(=O)N[C@@H](CC(C)C)C(=O)N[C@@H](C)C(=O)NCC(=O)NCC(=O)N2CCC[C@H]2C(=O)N[C@@H](CO)C(=O)N[C@@H](CO)C(=O)NCC(=O)N[C@@H](C)C(=O)N2CCC[C@H]2C(=O)N2CCC[C@H]2C(=O)N2CCC[C@H]2C(=O)N[C@@H](CO)C(N)=O)C(C)C)NC(=O)[C@H](CCCCN)NC(=O)[C@H](C)NC1=O
B4: mt-284 (peptide)
peptide: Y[Aib]EGTFTSDK(Stearoyl)SIYLDKQAA[Aib]EFVNWLLAG-NH2
modifications: N-terminus assumed
SMILES: CCCCCCCCCCCCCCCCCC(=O)NCCCC[C@H](NC(=O)[C@H](CC(=O)O)NC(=O)[C@H](CO)NC(=O)[C@@H](NC(=O)[C@H](Cc1ccccc1)NC(=O)[C@@H](NC(=O)CNC(=O)[C@H](CCC(=O)O)NC(=O)C(C)(C)NC(=O)[C@@H](N)Cc1ccc(O)cc1)[C@@H](C)O)[C@@H](C)O)C(=O)N[C@@H](CO)C(=O)N[C@H](C(=O)N[C@@H](Cc1ccc(O)cc1)C(=O)N[C@@H](CC(C)C)C(=O)N[C@@H](CC(=O)O)C(=O)N[C@@H](CCCCN)C(=O)N[C@@H](CCC(N)=O)C(=O)N[C@@H](C)C(=O)N[C@@H](C)C(=O)NC(C)(C)C(=O)N[C@@H](CCC(=O)O)C(=O)N[C@@H](Cc1ccccc1)C(=O)N[C@H](C(=O)N[C@@H](CC(N)=O)C(=O)N[C@@H](Cc1c[nH]c2ccccc12)C(=O)N[C@@H](CC(C)C)C(=O)N[C@@H](CC(C)C)C(=O)N[C@@H](C)C(=O)NCC(N)=O)C(C)C)[C@@H](C)CC
B5: mt-283 (peptide)
peptide: Y[Aib]EGTFTSDK(Palmitoyl)SIYLDKQAA[Aib]EFVNWLLAG-NH2
modifications: N-terminus assumed
SMILES: CCCCCCCCCCCCCCCC(=O)NCCCC[C@H](NC(=O)[C@H](CC(=O)O)NC(=O)[C@H](CO)NC(=O)[C@@H](NC(=O)[C@H](Cc1ccccc1)NC(=O)[C@@H](NC(=O)CNC(=O)[C@H](CCC(=O)O)NC(=O)C(C)(C)NC(=O)[C@@H](N)Cc1ccc(O)cc1)[C@@H](C)O)[C@@H](C)O)C(=O)N[C@@H](CO)C(=O)N[C@H](C(=O)N[C@@H](Cc1ccc(O)cc1)C(=O)N[C@@H](CC(C)C)C(=O)N[C@@H](CC(=O)O)C(=O)N[C@@H](CCCCN)C(=O)N[C@@H](CCC(N)=O)C(=O)N[C@@H](C)C(=O)N[C@@H](C)C(=O)NC(C)(C)C(=O)N[C@@H](CCC(=O)O)C(=O)N[C@@H](Cc1ccccc1)C(=O)N[C@H](C(=O)N[C@@H](CC(N)=O)C(=O)N[C@@H](Cc1c[nH]c2ccccc12)C(=O)N[C@@H](CC(C)C)C(=O)N[C@@H](CC(C)C)C(=O)N[C@@H](C)C(=O)NCC(N)=O)C(C)C)[C@@H](C)CC
B6: mt-282 (peptide)
peptide: Y[Aib]EGTFTSDK(Myristoyl)SIYLDKQAA[Aib]EFVNWLLAG-NH2
modifications: N-terminus assumed
SMILES: CCCCCCCCCCCCCC(=O)NCCCC[C@H](NC(=O)[C@H](CC(=O)O)NC(=O)[C@H](CO)NC(=O)[C@@H](NC(=O)[C@H](Cc1ccccc1)NC(=O)[C@@H](NC(=O)CNC(=O)[C@H](CCC(=O)O)NC(=O)C(C)(C)NC(=O)[C@@H](N)Cc1ccc(O)cc1)[C@@H](C)O)[C@@H](C)O)C(=O)N[C@@H](CO)C(=O)N[C@H](C(=O)N[C@@H](Cc1ccc(O)cc1)C(=O)N[C@@H](CC(C)C)C(=O)N[C@@H](CC(=O)O)C(=O)N[C@@H](CCCCN)C(=O)N[C@@H](CCC(N)=O)C(=O)N[C@@H](C)C(=O)N[C@@H](C)C(=O)NC(C)(C)C(=O)N[C@@H](CCC(=O)O)C(=O)N[C@@H](Cc1ccccc1)C(=O)N[C@H](C(=O)N[C@@H](CC(N)=O)C(=O)N[C@@H](Cc1c[nH]c2ccccc12)C(=O)N[C@@H](CC(C)C)C(=O)N[C@@H](CC(C)C)C(=O)N[C@@H](C)C(=O)NCC(N)=O)C(C)C)[C@@H](C)CC
B7: mt-280 (peptide)
peptide: Y[Aib]QGTFTSDYSIYLDKQAA[Aib]EFVNWLLAGGPSSGAPPPSK-NH2
modifications: N-terminus assumed
SMILES: CC[C@H](C)[C@H](NC(=O)[C@H](CO)NC(=O)[C@H](Cc1ccc(O)cc1)NC(=O)[C@H](CC(=O)O)NC(=O)[C@H](CO)NC(=O)[C@@H](NC(=O)[C@H](Cc1ccccc1)NC(=O)[C@@H](NC(=O)CNC(=O)[C@H](CCC(N)=O)NC(=O)C(C)(C)NC(=O)[C@@H](N)Cc1ccc(O)cc1)[C@@H](C)O)[C@@H](C)O)C(=O)N[C@@H](Cc1ccc(O)cc1)C(=O)N[C@@H](CC(C)C)C(=O)N[C@@H](CC(=O)O)C(=O)N[C@@H](CCCCN)C(=O)N[C@@H](CCC(N)=O)C(=O)N[C@@H](C)C(=O)N[C@@H](C)C(=O)NC(C)(C)C(=O)N[C@@H](CCC(=O)O)C(=O)N[C@@H](Cc1ccccc1)C(=O)N[C@H](C(=O)N[C@@H](CC(N)=O)C(=O)N[C@@H](Cc1c[nH]c2ccccc12)C(=O)N[C@@H](CC(C)C)C(=O)N[C@@H](CC(C)C)C(=O)N[C@@H](C)C(=O)NCC(=O)NCC(=O)N1CCC[C@H]1C(=O)N[C@@H](CO)C(=O)N[C@@H](CO)C(=O)NCC(=O)N[C@@H](C)C(=O)N1CCC[C@H]1C(=O)N1CCC[C@H]1C(=O)N1CCC[C@H]1C(=O)N[C@@H](CO)C(=O)N[C@@H](CCCCN)C(N)=O)C(C)C

Bridges are numbered along the chain shown (N, C = ends). Where no end group is shown, it is not given here. [ ]: non-standard residue; d: D form. The star is where a group is joined. Stearoyl = CCCCCCCCCCCCCCCCCC(=O)*; Palmitoyl = CCCCCCCCCCCCCCCC(=O)*; Myristoyl = CCCCCCCCCCCCCC(=O)*; Aib = CC(C)(N)C(=O)O

The target in one experiment is glucagon receptor (UniProt P47871 26-477, limits assumed). As to the kind of experiment: cell-based or functional assay.
glucagon receptor, sequence (P47871 26-477 limits assumed): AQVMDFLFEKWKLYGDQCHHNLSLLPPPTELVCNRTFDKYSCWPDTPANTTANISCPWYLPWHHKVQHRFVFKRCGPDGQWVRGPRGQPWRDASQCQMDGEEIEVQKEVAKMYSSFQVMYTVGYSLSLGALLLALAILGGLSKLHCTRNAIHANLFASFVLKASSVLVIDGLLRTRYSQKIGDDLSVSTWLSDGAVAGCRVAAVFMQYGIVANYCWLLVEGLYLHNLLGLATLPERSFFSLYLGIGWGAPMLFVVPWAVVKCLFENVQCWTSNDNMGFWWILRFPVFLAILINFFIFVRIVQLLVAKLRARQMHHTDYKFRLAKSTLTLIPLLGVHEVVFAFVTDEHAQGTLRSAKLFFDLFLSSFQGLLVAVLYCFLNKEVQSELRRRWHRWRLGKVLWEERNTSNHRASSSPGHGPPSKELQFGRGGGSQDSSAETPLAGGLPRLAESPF
B1: the “EC50” value was found to be 199 pM and the relative activity is 51.3%.
Take B2: the 50% effective concentration (EC50) was 362 pM and the relative activity stood at 34.5%.
Turning to B3, the midpoint of the response, the EC50, lay at 2610 pM and the relative activity was determined as 4.79%.

A further experiment has as its target GLP-1 receptor (UniProt P43220 24-463, limits assumed). As to the kind of experiment: cell-based or functional assay.
Consider B1, for which the concentration for a half-maximal effect (EC50) came out at 57 pM and the relative activity came to 54.4%.
As for B2, a half-maximal response (EC50) required 315 pM and the relative activity is 7.94%.
As for B3, a half-maximal effect (EC50) was put at 1720 pM and the relative activity worked out at 1.45%.

The target in the next experiment is T1, GIP receptor. Kind of experiment: cell-based or functional assay.
On to B1, for which the concentration giving a half-maximal response (EC50) is 142 pM and the relative activity was found to be 14.8%.
For B2, in that order: 399 pM and 5.01%.
For B3, in that order: 6240 pM and 0.32%.

For another experiment, the target named is T2, GIP receptor. As to the kind of experiment: cell-based or functional assay.
Take B4: the “EC50” value is 18.6 pM.
Consider B5, for which the “EC50” value was found to be 12.2 pM.
Still for that read-out and setting: next, B6: 13.3 pM; B7: 14.9 pM.

The EC50 is the concentration needed to bring the measured effect to its halfway point. A higher EC50 goes with weaker potency.
